In article PMC4446614:

Target: His-sumo-TBC1D15 (shark TBC1D15 from Chiloscyllium plagiosum) (Chiloscyllium plagiosum)

release of inorganic phosphate (Pi) by GTP hydrolysis, A360 read every 5 min (EnzChek Phosphate Assay Kit; Rab7 700 nM, TBC1D15 300 nM, 22 °C); Rab or TBC1D15 alone as the blank: 0.4 A360
Substance: MBP-Rab7a-WT (from UniProt P51149 1-207) (natural protein)
